Test [1] addresses human SLBP (hSLBP), Stem-Loop Binding Protein RNA binding domain (RBD/RPD) (UniProt Q14493). Kind of test: mass spectrometry of oligomer peaks. To be noted: reference: bacterially expressed unphosphorylated RBD; sites T171.
In test [2] the target is human SLBP RNA binding domain, phosphorylated at Thr171, baculovirus expressed (human). Kind of test: electrospray mass spectrometry.
The target of test [3] is human SLBP RNA binding domain, unphosphorylated, bacterially expressed (human). Kind of test: MALDI-TOF mass spectrometry.

On to “human SLBP (hSLBP), Stem-Loop Binding Protein RNA binding domain (RBD/RPD) (from UniProt Q14493) baculovirus-expressed phosphorylated RBD”, for which the “other: percent of mass as dimer” value in test [1] is given as “weaker; reference 35.3”.

As to “human SLBP RNA binding domain, phosphorylated at Thr171, baculovirus expressed (domain or fragment)”, in test [2], the percent of the mass spectrum as dimer came out at 5.6%, the percent of the mass spectrum as tetramer amounted to 3.8% and the percent of the mass spectrum as trimer stood at 3.9%.

In test [3], “human SLBP RNA binding domain, unphosphorylated, bacterially expressed (domain or fragment)” came in with a percent of the mass spectrum as dimer of 35.3%, a percent of the mass spectrum as hexamer of 9.7%, a percent of the mass spectrum as tetramer of 12.4% and a percent of the mass spectrum as trimer of 9.9%.
